{"source": "the DeepSol protein solubility set"}
{"test": "soluble on expression in E. coli; label from the status in PepcDB or PDB records"}
{"sequence": "MAKWGQGDPRWIVAEREDGTNVNNWHWTARDATIWSKGKLRELLVGIAMENEAGRCEISELKQVEGEASCNSRKGKLIFFYEWNIKLAWKGTVKESGAKHKGLIEIPSLSEENEINDTEVNVSKKKGDGEILKDLMRTTGTAKVREALGEYLKALKTEFTTGMILPTKAVATQELTLQRKLNENKLQASPVALGVRIPTVALHLTELFDTTVEQLYSIFTVKELVQKFSKSPAVLEAERGGKFQMFDGNISGEYVELVTNRKIIMKWRCRNWPEALGFFPRTLCNS", "soluble on expression in E. coli": "not soluble"}
{"sequence": "MALEGLKTSCCRPNEPLTTNSMAIAQEKAQHQQRSSLRNMTRPMIGRSGPKEASMTTRTRRETIVFAHPFRLRGIDRELPAGAYDVITDEELIEGLSFPVFRRVATMITVPCAPPRQSAVEMLTIEPDALRDARQADSSTSRA", "soluble on expression in E. coli": "not soluble"}
{"sequence": "MALEPIDYTTHSREIDAEYLKIVRGSDPDTTWLIISPNAKKEYEPESTGSSFHDFLQLFDETKVQYGLARVSPPGSDVEKIIIIGWCPDSAPLKTRASFAANFAAVANNLFKGYHVQVTARDEDDLDENELLMKISNAAGA", "soluble on expression in E. coli": "soluble"}
{"sequence": "MALLQISEPGLTAAPHQRRLAAGIDLGTTNSLVATVRSGKAQTLADEQLADEQLIADEQLIAGEQLIAGQQLIAGQQLINEKQRDLLPSVVHYHPQGIDVGWKARNLAALDPVNTISSVKRMMGRSLADIVQRYPNLPYQFHASENGLPMIQTARGLVNPVQVSAEILKTLAQRAQAALAGELDGVVITVPAYFDDAQRQGTKDAARLAGLHVLRLLNEPTAAAIAYGLDSGQEGVIAVYDLGGGTFDISILRLSRGVFEVLATGGDSALGGDDFDHLLADWLREQAGVATRDDHGIQRQLLDTAIAAKIALSEAETAVVSVAGWQGEVTREQLESLIAPQVKRTLMACRRALKDAGVTADEILEVVMVGGSTRVPLVREQVGQFFGRTPLTSIDPDKVVAIGAAIQADILVGNKPDSDMLLLDVIPLSLGLETMGGLVEKVIPRNTTIPAARAQEFTTFKDGQSAMMIHVLQGERELVKDCRSLARFTLRGLPPLPAGGAHIRVTFQVDADGLLSVTAMEKSTGVEASIQVKPSYGLSDDEIANMIKDSMANAQSDITARKLAEQRVDAARVLESLQGALAEDAALLSEQESAAIAQAVALLQQQMQGSDPQAIEAAIKALDAQTQDFAARRMDASIRRALAGHSVDEV", "soluble on expression in E. coli": "soluble"}
{"sequence": "MALPKTGYTKTTADNFVIDSATVFTDFKYDKEKEEFTGIPMGATSGGVEIKTELSYRKVEVDGAYIMDVVGLNVLESATATMKANLIELTAENLRRSLNATMTDATTDEAPAGYKIIKPKRYLEEGDYIPNMAVVGIHNGTKQPIIVALDNGLVKSGLEIKTEDGKEVVIEQEITANASYEQLINDEFPFRIYYPSTSKNPIELTESL", "soluble on expression in E. coli": "not soluble"}
{"sequence": "MALPQRQIVRAENVKIGISWQCALCDLDIYARPLPGAEVIYFGRMVTTHGRYWKDYRNSPQPTNGYETISFDVPLDLRPVVIAINFYEGEAPQGVSGEIRIAVDENTYAAPFHISATRGNRGQGVAKIIETGKASGNHSVIVDPLHIIRAR", "soluble on expression in E. coli": "not soluble"}
{"sequence": "MALSSAPILITGASQRVGLHCALRLLEHGHQVIISYRTEHASVAQLRQAGAHTLHGDFSSEASIMAFIEQLKSHTSSLRAIVHNASEWLAETPGDEAENFTRMFSVHMLAPYLINLHCEALLHASDVADIVHISDDVTRKGSSKHIAYCATKAGLESLTLSFAARFAPLVKVNGIAPALLMFQPKDDAAYRANALAKSAMGIEPGAEVIYQSLRYLLDSTYVTGTTLTVNGGRHV", "soluble on expression in E. coli": "not soluble"}
{"sequence": "MAMADEQFENYLVMCYDKLESKQQKFISDYNIYNFDEYCYDQDPCILQFKKNGQVLLEFSVVFIGSWSGKSNSWMWSWANENVADYARSKSNCLKDLQKITGSEVFINPLFECDQEMAYELAAFSIEYLDAEGMYMAPGERSDVFMAVMSPHAL", "soluble on expression in E. coli": "not soluble"}
{"sequence": "MAMGKPMQVSRYWRHFREKYRLIGGKCENGHLLFPKRPICPICGSRNIEEFQFSGKGKVITWTIVRNPPSGFEYYKPYPLALVQLEEGPVVLAQLTDVEPEEIKEGMEVEMVTRKIREFDEDGLILYGYKFRPIIKSELEHHHHHH", "soluble on expression in E. coli": "not soluble"}
